According to patent US6887705B1, “Tyrosine phosphorylated cleavage furrow-associated proteins (PSTPIPs)” (Genentech, Inc., priority 1997, dated 2005):
Numbering of substitutions follows the chain as printed.

Experiments:
Assay in all cases: in vitro translated PTP HSCF mutant precipitated with 1 or 10 µg/ml GST PST PIP
[1] = biological target: T1, PTP HSCF with P440 mutated to alanine, HA tagged (UniProt Q61152 1-453)
T1 construct: range 1-453; also called HSCF P440
T1 sequence (looked up): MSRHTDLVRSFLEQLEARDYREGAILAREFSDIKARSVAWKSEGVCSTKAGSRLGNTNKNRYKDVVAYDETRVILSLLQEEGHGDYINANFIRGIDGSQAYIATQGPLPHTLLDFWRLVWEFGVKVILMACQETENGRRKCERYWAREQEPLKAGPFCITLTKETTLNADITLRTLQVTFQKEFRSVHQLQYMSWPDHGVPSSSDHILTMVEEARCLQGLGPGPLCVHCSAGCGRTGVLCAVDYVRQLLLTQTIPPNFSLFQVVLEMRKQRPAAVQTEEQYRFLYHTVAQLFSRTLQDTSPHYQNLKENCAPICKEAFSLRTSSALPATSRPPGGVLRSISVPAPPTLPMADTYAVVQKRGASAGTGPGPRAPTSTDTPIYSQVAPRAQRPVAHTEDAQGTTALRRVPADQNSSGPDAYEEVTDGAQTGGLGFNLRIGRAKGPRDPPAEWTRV
Method: (§1) Multiple bands precipitated with the GST PST PIP fusion protein are apparently C-terminal proteolyzed products of the PTP. Also shown are GST PST PIP precipitations (10 μg/ml) performed on a double mutant of PTP HSCF (R+W) with both residues $R444$ and $W450$ mutated to alanine (bottom panel FIG. 14 A/2). B. COS cells were co-transfected with a 10:1 ratio of plasmids encoding hemagglutinin (HA) tagged PTP HSCF with the illustrated alanine substitutions or a mutant of PTP HSCF deleted for the C-terminal 24 amino acids (PTP $HSCFD24$) and wild type PST PIP with a C-terminal FLAG epitope tag, respectively. Transfected cell lysates were immunoprecipitated with anti-HA monoclonal antibodies and the precipitates were blotted with anti-PST PIP polyclonal antibody to detect the relative amounts of PST PIP complexed with either wild type or different mutant forms of PTP HSCF. Lysates were also immunoprecipitated with anti-HA antibody and blotted with the same antibody to insure equal expression of PTP HSCF. Equal expression of PSTPIP was determined by immunoprecipitating lysates with anti-FLAG monoclonal antibody and blotting with anti-PST PIP polyclonal antibody.
(§2) In vitro binding analyses between various PTP HSCF and PST PIP constructs were performed as previously described (Spencer et al, (1997), supra). Briefly, plasmids were transcribed and translated in vitro using the TnT Rabbit Reticulocyte Lysate System (Promega). Samples were diluted in 50 mM HEPES, pH 7.2, 1% triton X-100, 10% glycerol, 100 mM NaCl, and 2 µg/ml each of leupeptin, pepstatin, aprotinin and PMSF (lysis buffer). Samples were than reacted with GST fusion proteins at various concentrations, and the bound proteins were centrifuged using glutathione-sepharose beads and analyzed on SDS polyacrylamide gels. C-terminally-derived peptide inhibition studies were performed by incubating the GST fusion protein binding reactions in the presence of 10 µg/ml of the indicated peptides. Peptides were produced by FMOC-protected amino acids as previously described (Spencer et al, (1997), supra). In vivo interactions between various forms of PTP HSCF and PST PIP were also performed as previously described (Spencer et al, (1997), supra).

[2] = biological target: T2, PTP HSCF with G442 mutated to alanine, HA tagged (UniProt Q61152 1-453)
T2 construct: range 1-453; also called HSCF G442
T2 sequence (looked up): T1 sequence (looked up) with A440P, G442A
Method: as §1, §2

[3] = biological target: T3, PTP HSCF with P447 mutated to alanine, HA tagged (UniProt Q61152 1-453)
T3 construct: range 1-453; also called HSCF P447
T3 sequence (looked up): T1 sequence (looked up) with A440P, P447A
Method: as §1, §2

binding result [1]: binds
binding result [2]: binds
binding result [3]: binds
B1: GST-PSTPIP (GST fusion of full-length PSTPIP, amino acids 2-415) (other)
chain: MAQLQFRDAFWCRDFTAHTGYEVLLQRLLDGRKMCKDVEELLRQRAQAEERYGKELVQIARKAGGQTEMNSLRTSFDSLKQQTENVGSAHIQLALALREELRSLEEFRERQKEQRKKYEAIMDRVQKSKLSLYKKTMESKKAYDQKCRDADDAEQAFERVSANGHQKQVEKSQNKAKQCKESATEAERVYRQNIEQLERARTEWEQEHRTTCEAFQLQEFDRLTILRNALWVHCNQLSMQCVKDDELYEEVRLTLEGCDVEGDINGFIQSKSTGREPPAPVPYQNYYDREVTPLIGSPSIQPSCGVIKRFSGLLHGSPKTTPSAPAASTETLTPTPERNELVYASIEVQATQGNLNSSAQDYRALYDYTAQNSDELDISAGDILAVILEGEDGWWTVERNGQRGFVPGSYLEKL
notes: Made in DH5-alpha bacteria from pGEX4T-2; also called GST-full-length PSTPIP; GST PTP PIP; not shown: glutathione S-transferase encoded by pGEX-4T-2 (Pharmacia)
